Experimental data reported in publication PMC2731243, “Structure and Novel Functional Mechanism of Drosophila SNF in Sex-Lethal Splicing”.
Each block holds one binder with its values, some of them ahead of it.

Legend:
[1] = molecular target: T1, SNF full-length (NMR, SPR) (Drosophila melanogaster, UniProt P43332 1-216); test: NMR titration; protein:RNA 1:15; both RRMs perturbed; SPR 25 C: 10 mM HEPES pH 7.4, 150 mM NaCl, 3 mM EDTA, 0.05% P-20 (U1hpII); 50 mM PBS pH 7.0, 1 mM EDTA, 0.05% P-20 (poly(U)). EMSA: 4% native gel, protein ~1 uM, buffer by reference; settings: protein: recombinant; tags: pET-21d(+) vector
T1 sequence: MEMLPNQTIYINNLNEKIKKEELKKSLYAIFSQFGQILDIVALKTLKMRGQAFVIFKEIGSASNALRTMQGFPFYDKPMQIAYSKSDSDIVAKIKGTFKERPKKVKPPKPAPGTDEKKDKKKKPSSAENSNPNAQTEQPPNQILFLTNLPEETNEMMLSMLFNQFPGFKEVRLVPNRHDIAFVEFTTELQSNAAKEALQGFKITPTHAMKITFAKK

[2] = molecular target: T1, SNF full-length (NMR, SPR); test: SPR; n = 1.06; SPR 25 C: 10 mM HEPES pH 7.4, 150 mM NaCl, 3 mM EDTA, 0.05% P-20 (U1hpII); 50 mM PBS pH 7.0, 1 mM EDTA, 0.05% P-20 (poly(U)). EMSA: 4% native gel, protein ~1 uM, buffer by reference; settings: protein: recombinant; tags: pET-21d(+) vector; label: biotin
SNF RRM1 [3] = molecular target: T2, SNF RRM1 (Drosophila melanogaster, UniProt P43332 1-104); test: SPR; n = 1.20; SPR 25 C: 10 mM HEPES pH 7.4, 150 mM NaCl, 3 mM EDTA, 0.05% P-20 (U1hpII); 50 mM PBS pH 7.0, 1 mM EDTA, 0.05% P-20 (poly(U)). EMSA: 4% native gel, protein ~1 uM, buffer by reference; settings: protein: recombinant; tags: pET-21d(+) vector; label: biotin
T2 sequence: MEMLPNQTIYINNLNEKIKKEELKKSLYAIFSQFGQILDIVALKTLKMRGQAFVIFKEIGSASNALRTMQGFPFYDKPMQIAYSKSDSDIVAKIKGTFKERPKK

[4] = molecular target: T3, SNF RRM1 (residues 1-104) (Drosophila melanogaster (Fruit fly), UniProt P43332); test: NMR 1H-15N HSQC comparison of full-length SNF with isolated RRMs, plus 15N relaxation; inferred in cis from full-length SNF versus isolated domains; separate RRM1 and RRM2 were not reported as mixed in trans
T3 chain: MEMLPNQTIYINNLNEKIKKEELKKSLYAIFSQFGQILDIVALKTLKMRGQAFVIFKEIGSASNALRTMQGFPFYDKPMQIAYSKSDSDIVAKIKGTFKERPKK

SNF RRM1 [5] = molecular target: T2, SNF RRM1; test: SPR; SPR 25 C: 10 mM HEPES pH 7.4, 150 mM NaCl, 3 mM EDTA, 0.05% P-20 (U1hpII); 50 mM PBS pH 7.0, 1 mM EDTA, 0.05% P-20 (poly(U)). EMSA: 4% native gel, protein ~1 uM, buffer by reference; settings: protein: recombinant; tags: pET-21d(+) vector; label: biotin; hairpin

Binder: UUUUUUUUAUUUUUUUUU (ssRNA) [2U-run (NMR)]
binding result [1]: binds

Binder: CCCCUCCCCUUUUUUUUUAUUUUUUUU (ssRNA, 5' biotin) [2U-run poly(U) RNA (SPR)]
Kd [2]: ~300 nM | Kd (SNF RRM1 [3]): ~6000 nM

binding result [4]: no binding
B1: SNF RRM2 (residues 134-216) (protein)
chain: AQTEQPPNQILFLTNLPEETNEMMLSMLFNQFPGFKEVRLVPNRHDIAFVEFTTELQSNAAKEALQGFKITPTHAMKITFAKK

Binder: GGCUUGGCCAUUGCACCUCGGCUGAGUU (structured_RNA, 5' biotin) [U1hpII (SPR)]
Kd (SNF RRM1 [5]): ~4.4 nM
